From the DeepSol protein solubility set

Test: soluble on expression in E. coli; label from the status in PepcDB or PDB records

| Sequence | soluble on expression in E. coli |
| --- | --- |
| MAHHHHHHMFYMFLTRNDHQDRRRESPPPTPKKHGASFLRRIHLGEFSGRTICISWETLVEKHEWRDCAKETLLALSSNMIVYLMCHISNANEKGKVLSMVKDIPQLARHNILFCETEKGYEAFSRQIKPAILVTHDSAQAEFLSLVLPNVVLVGSSATGSAMTSISSLSELLF | not soluble |
| MGSDKIHHHHHHMINLEKYRIDLNEKKSTKYIQIFNHIKELIINKELVEHEKLPPIRKLSNFLQVNNTTIVKVYELLENEGYVYKIIGSGTFVSSLNSYKSGIDNRKNKIIVQREDLIHFDNGNPSNDMFPIDSFKNAVNMALSKDGSSIFEYDEGLGSEELREKMVEYLSDGNIKTTKENIQIISGAQQGIDIVCKGLISYSDVVFMEEPSYNGAIEVFKSRGAKIISIPMLDDGIDIGILKLKLEKIKPRLIYIMPNFQNPTGISYSTYKKKKLIELAEEHDFYIIEDDFISDFVFESKDNRTIRSYDDKNRVVYIKSFSKILMPGLRIGIVEMPNELLKKVLWAKYSSDISTPGLIQKSMYYYMNNFDWKNYLSHIEKIYTDKYKLAKNLINDKLSGKLKVRKSCGGINFFLELPRGYTSQAFTNFMLNKGVSMLPGTYFFDNLVDDRFFRINIARPSMEELEKGISIISDNIDEFFCEYKNKLDIKSNKLFY | not soluble |
| MGSDKIHHHHHHMSMILTSKFVDRERELNFLREHYHSGKAELIVIYGRRRIGKTYLLRKFLEETNGIYLLAEENETNLEDFSLRLADYFKDPFLKENPIRTWGAFFTYLAGKSTKRLVVVIDGVQYLVRAEKGFLSTLQKYWDLYLSSTKIMLILCGSLVSFMEGILSGKSPIYGRRTGTWKVEEMSFFDVLKFHPIDIETAIKIYGVFGGVPQYWVDYDPGKDFWENIKDLVLSKGAKYYDEPKYLLKEELRDVSRYFSILRAISLGYSRFGQIADAARIETKSLGKYLNVLEEMGYIREEKPIVGRGKTVYKINEHFFNFWFRFVFPRRSEIEMGFDVVEEIKKEFNNYLGPVFEEISRQFLIEMNKRKKLPFRFTKIGRWWYKGEEIDLVALNEDEKKALFIEVKWKNLERKEAYKILKDLKRKAELTGLHDWNKAYGIIAKSIMEKEELREEGFLAWDLRDFELIN | not soluble |
| MTNIERLERCADIMRRRWIYDPEAGLLFSRETKDVIKGSMTNKGHLVVTVHEGKFKVTLTYQKACYVYTYGAYDETLYEVHHVNLNKQDNRIKNIRLMPKEKHRRIHKNVRKLIRLGHTQWLQPQLIEQSL | not soluble |
| MGSDKIHHHHHHMLNYSLRPENRGKNLESSWQYMFKTYPYLKPWIDSLKQNQALKDTFIYSPDHVKLHAYYVASSRPTAKTAVIVHGYTDNAIRMMMIGYLYNKKLDFNILLPDLRDTGLSGGNAIQMGWLDRKDVTQWMEVANRIYGDSTSMVVHGISMGAATTMMVSGEPQPDYVKCFVEDCGYTSVWDQFSKELKAQFGLPQFPLMYTADWLCQLEYGWGFKEASALKQVARCHLPMFFIHGDKDDYVPTWMVYKLYEAKPQPKALWIVPEADHAHSYLFNTEEYTQKVKAFVDKYIQ | not soluble |
| MGFAFKRGISTPDLALITRQLATLVQSGMPLEECLRAVAEQSEKPRIRTMLVAVRAKVTEGYTLSDSLGDYPHVFDELFRSMVAAGEKSGHLDSVLERLADYAENRQKMRSKLQQASENLYFQ | soluble |
| MGSDKIHHHHHHMTLPIDTPAVLVDLNVAEANVRAFQSYCDRHSLKMRPHIKTHKLPQLAEYQIAQGAIGITCQKITEAEAMVAGGDMRDILITYNILGAEKVARLRALSERVALSVVADNLTVVEGLSAGFAGANKPLPVLVECNTGADRCGVETPEAALALAQAIDAAPGLKFAGLMTYPPVGGAAKVTTWLAEAKARIEATDLTVEVISSGGSPDMWQAHEMPLATEYRVGTYVYNDRSLVTRGICTWDDCALTVLATVVSTPSATRAVIDAGSKVLTSDLLGLEGYGHVLGYPDFMIDQLSEEHGRITSAQPTGLRVGDQVRIVPNHACVVANMLDHITLMRAEEVAGQETVAARGQVW | not soluble |
| SAQEEGGSLPEVRARVRAAHGIPDLAQKLHFYDRWAPDYDQDVATLLYRAPRLAVDCLTQALPGPPHSALILDVACGTGLVAAELRAPGFLQLHGVDGSPGMLEQARAPGLYQRLSLCTLGQEPLPSPEGTFDAVLIVGALSDGQVPCNAIPELHVTKPGGLVCLTTRTNWSNLQYKEALEATLDRLEQAGMWEGLVAWPVDRLWTAGSWLPPSWWWYPASLPRMASSPALSTCTESGRRPRLRK | soluble |
| MDEDLTPIPSLTPDIQKFRIYGRVTYFQENKNGNGIHFLLTDSLGCSIKCIVTVEAVVKHCKDQLKLGQPCYVRGGRVDYHDKRYPNRTGHDCVIFNNNIAEIQITTVATNFVTPIATLNAPKIIYKVHGMITQRGKYSKKEVFCFVITDDKGDSVNVAAFCEFADWLYENLKEKQWYYLYCGLIEKVCKPDDQKEPNNVIILHNKCQIETPSDPSVADPFAELDDLNCTINKMKL | not soluble |
| SNAMNQTLLSDFGTPVERVERAIDALRNGRGVMVLDDESRENEGDMVFAAEAMTLEQMALTIRHGSGIVCLCITDERRQQLDLPMMVTHNSSQFQTAFTVTIEAAEGVTTGVSAADRLTTIRKAIADNAKPADLNRPGHVFPLRGQPGGVLSRRGHTEASIDLATLAGYKPAGVLCELTNDDGSMAHAPEVIAFAKLHDMPVVTIDDLAAYLQSRAKKAS | soluble |
| MLCAVYKSSRKADTYLFVNKRDCFDDVPQALLDMFGVPQLVMVFPIVKRESLGIADINKVRAALEEKGFYLQIPPPQVNLLAEHRENLGIKD | soluble |
| MGSDKIHHHHHHMHEHFMTPPPLSVTGKPAIRIGCAGWGIPPQHAALFPPGGGHLERYARLFDTVEIDSSFYRPHQHKTYVRWADTVPDSFRFWVKTPREITHQRRLLECEDSLLRFLEEISGLGYKLGGILVQLPPSLALDVPSAQAFFTLLRQHYAGVAACEPRHASWFSMQGEKLLQDFRLARVAADPAKFPTAGTPGGDTGFSYYRLHGAPEIYYSSYPEAYLRQLAHTLQASIGPAWCIFDNTARGGATANAWDIMRLLDKTMHQD | not soluble |
| MIHEVAGDGTKRSFHEKKKMDESYQRNGRTNLEHVPRLKLGKLFIFISASTNKTCLQIDNEITNN | not soluble |
| MGSDKIHHHHHHMTTATHPNDALFAGEKSFPVLAACEHFAGSEKLIGKAMDLQVEYGPVFDVTCDCEDGAAAGQEREHAEMVARMIASDRNVHGRAGARIHDPSHPAWRQDVDIIVNGAGGRLAYITVPKATNSGQVAEVIRYIGDVAKRAGLDKPVPVHVLIETHGALRDVFQIAELPNIEVLDFGLMDFVSGHHGAIPAAAMRSPGQFEHALLVRAKADMVAAALANGIVPAHNVCLNLKDAEVIASDACRARNEFGFLRMWSIYPAQIQPIVNAMRPDFTEVEDAAGILVAAQDADWGPIQYKGELHDRATYRYFWEVLQKAKVTGMAVPAEAERRFFVN | not soluble |
| MSVEFQFQALVEDTPNEKWKAIFQQLWPGYRAWFLRSGVTGRPTYLECRQALRTYMPELVPLWEQLIELTGGGDVESRFLSLWCPPPYIAGCSQGVWFDPKGQEEPILLRNYDFAPVLLEGNLLNTRWLDQRVIAMSDCLWGALDGVNEAGLSASLSFGGRTVTGTGFGIPLVLRYILELAHTTQDAVNILKRIPVHMTYSVTLLDRKGEWNTVFVSPDRQPEVVKRHAVTNYQNAIEWPQHATATHSAERLTFLEQVLHHATNSHEVLQGLLTKPLYQDAWLRGYGTLYSAIYRPLSQKVEICWPHDYSQQSFEHFTEEQKLILLSVELEHHHHHH | not soluble |
| MRSQRVFTTIDTHTGGNPTRTLISGLPKLIGETMAEKMLHMKKEYDWIRKLLMNEPRGHDVMSGALLTDPCHPEADIGVIYIETGGYLPMCGHDTIGVCTALVESGLIPVVEPITSLKLDTPAGLVEVDIAVQDGKAKEVSFCNIPAFLLKNITVQVKDIGTIEADIAYGGNFYAIIDAKSVGLELIPENASTIIDKAIHIRNTINEKFEIIHPEYSFIRGLTHVEFYTDATHECAHVKNTVIVPPGGIDRSPCGTGTSAKLAVLYAQKEIKIGEEFIHESIVGSLFKGYVVNTTHVENIEAVITKITGSAWLMGMHKFFYNEMDPLKEGFLLIPPMEHETEDIKMAGDPNSLEHHHHHH | soluble |
| MRARIYQPARNAMTSGMAKTRKWVLEYAPGSAREVDPLMGWTSSSDTQSQVRLRFDSKEEALDYARAHGIDAVVTEPHKRKPNLRARGYGENFATDRRGPWTH | soluble |
| MGAQNSKRKDLKNINDEDYAHFMEKLKKHTDGKDKMTRDQFVAMFIPILGEYSSQFYFRLVKNEPQGVLLAKTILKCIDTGLGHFDQLADMLRFCFGDQKDQIMRNVVKIFCEGNKFTREDQVRLYDYFETENTKPVSELESFFSMCPLFAYCASFIFQRLLDKTGDSKMPILSDKTHLMGNIDQLVLNSHLPFDRRKNWTLLYSNMKHGQSFSQLVKCINGEGPCMIVIRSMKGRRFGFFASQGFLAGPQYRGTAECFLFQLAPKIATFDATGRTENYVYLNYQQQQHPNGLGIGGTESVWPLFIHEEFGGGTCQKNSSSFEPCHIAEEDEFKIKTIEAWRPGDKPQKSFEEQILLEERSPEKSIIDKDPEARAVLELAGKSMHSEAYRDPAPLLDGE | not soluble |
| SAVAVEGARRKERILCLFDVDGTLTPARQKIDPETIQNHLGEELLQDLINFCLSYMALLRLPKKRGTFIEFRNGMLNVSPIGRSCTLEERIEFSELDKKEKIREKFVEALKTEFAGKGLRFSRGGMISFDVFPEGWDKRYCLDSLDEDSFDIIHFFGNETSPGGNDFEIYADPRTVGHSVVSPQDTVQRCRELFFPETAHEA | soluble |
| MTILFISDLHLSPLRPDITDCFIDFMQNEAIHAEKLYVLGDLFEFWIGDDDNSPFNVSIKNEFKALTEKGVKCYFIQGNRDFLLNKRFCKETGVELLDDHTVIELDGEKVLIMHGDTLCIDDIKYQEFRAKVHKPWLQWVFNRIPLFIRQRIVKNVQDKIKEKKQTKTLCIMDVTQSEVERVMQEEGVQRLIHGHTHRPDTHTFMSNNKEMTRIVLGDWYSQGSILEYSDKIYSLHKKEFK | not soluble |
| MGSDKIHHHHHHMSEKRQPWVQDLLWRLEALGFDLFIGAVRMMGVDRASDFGGWLGRTFGPMSGAHKVASRNLKLAFPDKDAAWHETILREQWDGLGRSFAEFPLMDKILPSTGRVEVVGKERLVEIAENRIPVVFVSGHLSNWEVMPAAIVDSGVICEMTYRAANNPYVDKRIKESRFRYGVRLFAPKGGDGARELLEGMKQGKSVALMNDQKFNSGVAAPFFGHLAHTAPGPTRLAIRFGTVLQPMSVQRLKGARFRAVVHDPIVPPKTGDRTADIEAGVRMINAFMEDRIRERPAEWFWVHRRWPNEVYAALAERERAAESSS | not soluble |
| MSLAITTSPPTVSDTKRIFYANYKKLLLPLYNTPIQNMLVKQHIHRYNKNYTYSDVSALGIVTTLDSVLNTFPDDEKTSIKNAFIISLNEDPEMYYSNIESLKPYAKSSHLGPNKHGNTLQKSLYDIAINDKYVYSSFAAVGIFKLLQMNGNYTGNSVKHLSESIGFKGELVHKDIATFFSLLKYIESSQKLADDIREESLKREGHHHHHH | soluble |
